Assay [1] deals with T1, human CXCR5 (human, UniProt P32302 1-372).
T1 construct: whole, on cells; also called hu-CHO; CHO-CXCR5 cells
T1 sequence (looked up): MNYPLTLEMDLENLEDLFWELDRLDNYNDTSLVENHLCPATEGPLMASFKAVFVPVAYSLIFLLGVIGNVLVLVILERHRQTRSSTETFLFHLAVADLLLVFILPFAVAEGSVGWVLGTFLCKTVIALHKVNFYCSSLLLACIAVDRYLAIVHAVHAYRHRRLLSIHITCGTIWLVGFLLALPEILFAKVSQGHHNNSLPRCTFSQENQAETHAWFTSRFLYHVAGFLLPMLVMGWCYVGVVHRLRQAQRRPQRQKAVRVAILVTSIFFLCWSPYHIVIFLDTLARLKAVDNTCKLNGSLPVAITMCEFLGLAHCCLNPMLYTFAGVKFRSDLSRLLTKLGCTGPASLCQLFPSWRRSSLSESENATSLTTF
The experiment in a line: flow cytometry on CHO-CXCR5 cells, IgG titration. An excerpt: This example describes a cellular binding assay to determine the EC₅₀ for anti-CXCR5 antibodies binding to human CXCR5. […] In this example, CHO-CXCR5 cells were lifted from culture flasks using non-enzymatic Cell Dissociation Buffer—PBS based (Life Technologies #13151-014). Cells were resuspended in FACS Buffer (2% Fetal Bovine Serum in PBS) at 1×10⁶ cells/ml and […] were aliquoted into the wells of a 96-well plate. Plated cells were spun down and the supernatant discarded. Cells were resuspended in 30 μl FACS Buffer serially diluted concentrations of CXCR5 IgG in triplicate. Plates were incubated for 1 hr at 4° C. and then washed 2× with FACS Buffer. Cells were resuspended in 50 μl goat anti-human IgG (γ-chain specific)-PE conjugated secondary antibody (Southern Biotech #2040-09) diluted 1:500 in FACS Buffer. Cells were further incubated for 30 min at 4° C. and then washed 1× with FACS Buffer. The cells were resuspended in a final volume of 30 μl FACS Buffer and analyzed using the Intellicyt Flow Cytometer. Median fluorescence in the FL-2H channel was determined using FlowJo software and EC₅₀ value was determined by plotting the data in GraphPad Prism and analyzing using a variable slope non-linear regression.
On the technique in general: Flow cytometry measures light scatter and fluorescence of single cells or particles in a stream.

Assay [2] deals with T2, murine CXCR5 (murine, UniProt Q04683 1-374).
T2 construct: whole, on cells; Endogenous receptor on mouse spleen cells cultured with LPS
T2 sequence (looked up): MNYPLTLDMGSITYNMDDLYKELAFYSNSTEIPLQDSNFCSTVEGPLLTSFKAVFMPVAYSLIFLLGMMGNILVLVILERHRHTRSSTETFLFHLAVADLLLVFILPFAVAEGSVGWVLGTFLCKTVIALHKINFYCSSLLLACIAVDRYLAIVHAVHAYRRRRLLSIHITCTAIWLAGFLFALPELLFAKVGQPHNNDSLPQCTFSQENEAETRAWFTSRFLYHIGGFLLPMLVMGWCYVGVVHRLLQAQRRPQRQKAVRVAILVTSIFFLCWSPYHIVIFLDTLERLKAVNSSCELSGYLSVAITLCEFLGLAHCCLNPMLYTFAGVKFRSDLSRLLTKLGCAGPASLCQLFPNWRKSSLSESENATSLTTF
The experiment in a line: flow cytometry on LPS-cultured mouse spleen cells, IgG titration. Here is the method:
In this example, mouse spleen cells were harvested from either C57B1/6 or athymic nu/nu mice. Cells were cultured at 2×10⁶ per ml with LPS at 10 micrograms per ml in RPMI+10% FCS for up to 4 days at 37° C. in 5% CO2. Cells were harvested, washed and resuspended in FACS Buffer (2% Fetal Bovine Serum in PBS) at 1×10⁶ cells/ml and 50 μl (0.5×10⁵ cells) were aliquoted into the wells of a 96-well plate. Plated cells were spun down and the supernatant discarded. Cells were resuspended in 30 μl FACS Buffer containing serially diluted concentrations of CXCR5 IgG in triplicate. Plates were incubated for 1 hr at 4° C. and then washed 2x with FACS Buffer. Cells were resuspended in 50 μl goat anti-human IgG (γ-chain specific)-PE conjugated secondary antibody (Southern Biotech #2040-09) diluted 1:500 in FACS Buffer. Cells were further incubated for 30 min at 4° C. and then washed 1× with FACS Buffer. The cells were resuspended in a final volume of 30 μl FACS Buffer and analyzed using the Intellicyt Flow Cytometer. Median fluorescence in the FL-2H channel was determined using FlowJo software and EC₅₀ value was determined by plotting the data in GraphPad Prism and analyzing using a variable slope non-linear regression.

B1: 12D11 (antibody, V domains shown)
VH: EVQLVQSGAEVKKPGASVKVSCKASGYTFTGYYLNWVRQAPGQGLEWMGWINPNNGGTNYAQRFQGRVTMTRDTSISTAYMDLSRLRSDDTAVYYCVRGTRKYYHDSNGRRRDYYYGMDVWGQGTTVTVSS
VL: AIRMTQSPSSLSASVGDRVTITCRASQSISSYLNWYQQKPGKAPKLLIYAASSLQSGVPSKFSGSGSGTEFTLTISSLQPEDFATYYCQQYKFYPPNFGGGTKVEI
notes: tested as human IgG
On to B1, for which the EC50 in assay [1] worked out at 2.1 nM.

B2: 12G10 (antibody, V domains shown)
VH: EVQLVESGGGVVQPGRSLRLSCAASGFTFSSYAMHWVRQAPGKGLEWVAVISYDGSNKYYADSVKGRFTISRDNSKNTLYLQMNSLRAEDTAVYYCARIAVAGTHFDYWGQGTLVTVSS
VL: SYELMQPPSVSGTPGQRVTISCSGSTSNVGSNTVNWYRQFPGTAPKLLIYANNQRPSGVPDRFSGSKSGTSASLAISGLQSENEADYYCAAWDDSLNGYVFGTGTKLTVL
notes: tested as human IgG
For the molecule B2, the EC50 in assay [2] was determined as 2.5 nM; in assay [1], 0.5 nM.

B3: 52H9 (antibody, V domains shown)
VH: QVQLVESGGGVVQPGRSLRLSCAASGFTFSSYGMHWVRQAPGKGLEWVAVISYDGSNKYYADSVKGRFTISRDNSKNTLYLQMNSLRAEDTAVYYCAKLSGPTAKFDYWGQGTLVTVSS
VL: QSVLTQPASVSGSPGQSVTISCTGTSRDVGGYNFVSWYQQHPGKAPKLMIYDVSNRPSGVSNRFTGSKSGNTASLTISGLQAEDEADYHCSSYRRGDTLVFGGGTKLTVL
notes: tested as human IgG
For B3, a half-maximal response in assay [1] (EC50) required 4 nM.

B4: 16F9 (antibody, V domains shown)
VH: EVQLVESGGEVKKPGASVKLSCKSSGYTFTSYYMHWVRQAPGQGLEWMGIINPSGGSTSSAQKFQGRVTMTRDTSTRTVYMELSSLRSEDTAVYYCARGAPNWNYARTLFDYWGQGTLVTVSS
VL: SYELTQPRSVSGSPGQSVTISCTGTSSDVGGYNSVSWYQQHPGKAPKLMIYDVSKRPSGVPDRFSGSKSGNTASLTISGLQAEDEADYYCSSYSSSTTHVVFGGGTKLTVL
notes: tested as human IgG
Consider B4, for which the half-maximal effective concentration (EC50) in assay [2] amounted to 3.1 nM; in assay [1], 0.7 nM.

B5: PC12 (antibody, V domains shown)
VH: EVQLLESGAEVKKPGASVKVSCKASGYTFTSYYVHWVRQAPGQGLEWMGIINPSGGTTSYAQKFQGRVTMTRDTSTSTVYMELSSLRSEDTAVYYCVRDRRVVAATTPSAFDVWGQGTMVTVSS
VL: QSVVTQPPSVSAAPGQKVTISCSGSSSNIGNNYVSWYQQLPGTAPKLLIYDNNKRPSGIPDRFSGSKSGTSATLGIVGLQTGDEADYYCATWDGSLSTFLFGPGTKLTVL
notes: tested as human IgG
Consider B5, for which, in assay [1], the EC50 is 4.2 nM.

B6: 15G11 (antibody, V domains shown)
VH: QVQLVQSGGGVVQPGGSLRLSCAASGFAFNRYGMHWVRQAPGQGLEWVAVISYDGSLKYYADSVKGRFTISRDNSNNTLYLQMNSLSADDTAVYYCAKGGAALDSWGQGTLVTVSS
VL: DVVMTQSPLSSPVTLGQPASISCRSSQSLVHSDGTTYLSWLQQRPGQPPRLLIYKISNRFSGVPDRFSGSGAGTDFTLKISRVEAEDVGVYYCMQTTQFPPMFGQGTKVEIK
notes: tested as human IgG
For the molecule B6, the EC50 came to 4.8 nM in assay [2] and 0.4 nM in assay [1].

B7: 11E3 (antibody, V domains shown)
VH: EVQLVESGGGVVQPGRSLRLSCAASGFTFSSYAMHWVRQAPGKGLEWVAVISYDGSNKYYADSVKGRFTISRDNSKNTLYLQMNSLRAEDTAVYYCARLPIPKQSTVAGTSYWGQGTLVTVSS
VL: LPVLTQPASVSGSPGQSITISCTGTSSDVGGYNYVSWYQQHPGNAPKLMIYDVSNRPSGVSNRFSGSKSGNTASLTISGLQAEDEADYYCSSYTSSSTLYVFGTGTKLTVL
notes: tested as human IgG
Consider B7, for which the EC50 was 11 nM in assay [2] and 1.8 nM in assay [1].

B8: 13E10 (antibody, V domains shown)
VH: EVQLVQSGAEVKKPGASLKISCRASGYTFTRNYIHWVRQAPGQGLEWLGIINPNGGSTRYSQKFQGRVTMTRDTSTRTVYMELSSLRSEDTAVYYCAREAPKYCSGSSCYSGGVDYWGQGTLVTVSS
VL: QPVLTQPLSASGTPGQRVTISCSGSSSNIGSNYVYWYQQLPGTAPKLLIYRNYQRPSGVPDRFSGSTSGTSASLAISGLRSEDEADYHCAAWDGSMRGWVFGGGTKLTVL
notes: tested as human IgG
B8: the figures for the half-maximal effective concentration (EC50) in assay [2] and in assay [1] were 25 nM and 0.7 nM, respectively.

B9: 14E5 (antibody, V domains shown)
VH: EVQLVESGGGVVQPGRSLRLSCAASGFTFSSYGMHWVRQAPGKGLEWVAVISYDGSNKYYADSVKGRFTISRDNSKNTLYLQMNSLRAEDTAVYYCAKVYSRGSDYWGQGTLVTVSS
VL: QSVLTQPASVSGSPGQSITISCTGTSSDVGGYNYVSWYQQHPGKAPKLLIYDVSRRPSGISSRFSGSKSGNTASLTISGLQTEDDGDYYCLSYTTSRAVVFGGGTKLTVL
notes: tested as human IgG
For the molecule B9, the concentration for a half-maximal effect (EC50) worked out at 2.8 nM in assay [2] and 0.3 nM in assay [1].

B10: 13E4 (antibody, V domains shown)
VH: QITLKESGGGVVQPGRSLRLSCAASGFTFSSYGMHWVRQAPGKGLEWVAVISYDGSNKYYADSVKGRFTISRDNSKNTLYLQMNSLRAEDTAVYYCANNGWATYPDYWGQGTLVTVSS
VL: QPVLTQPASVSGSPGQSITISCTGTSSDVGGYNYVSWYQQHPGKAPKLMIYDVSNRPSGVSNRFSGSKSGNTASLTISGLQAEDEADYYCSSYTSSSTLVFGGGTKLTVL
notes: tested as human IgG
Consider B10, for which the EC50 in assay [2] is 5.5 nM; in assay [1], 0.9 nM.

B11: 16F8 (antibody, V domains shown)
VH: EVQLLESGGGLVQPGGSLRLSCAASGFTFSSYGMHWVRQAPGKGLEWVAVISYDGSNKYYADSVKGRFTISRDNSKNTLYLQLNSLRAEDTAVYYCARGQNLDYWGQGTLVTVSS
VL: QPVLTQPASVSGSPGQSITISCTGTSSDVGGYNYISWYQQHPGKAPKLMIYEVSNRPSGVSNRFSGSKSGNTASLTISGLQAEDEADYYCSSYRSSSTQVFGGGTKLTVL
notes: tested as human IgG
For B11, the EC50 was 15 nM in assay [2] and 3.6 nM in assay [1].

B12: 13F9 (antibody, V domains shown)
VH: EVQLLESGGGLIQPGGSLRLSCAASGFIFSRYGMHWVRQAPGKGLEWVAVTSYDGRSKYYTDSVQGRFTISRDNSKNTLDLQMNSLRAEDTAVYYCARLHTVGPWHFDLWGRGTLVTVSS
VL: SYELTQPRSVSGSPGQSVTISCTGTSSDVGGYNYVSWYQQHPGKVPKLMIYEVSNRPSGVSNRFSGSKSGNAASLTISGLQAEDEADYYCSSYTSSSTLVFGGGTKLTVL
notes: tested as human IgG
On to B12, for which the EC50 in assay [2] was 23 nM; in assay [1], 1.6 nM.

B13: 52A9 (antibody, V domains shown)
VH: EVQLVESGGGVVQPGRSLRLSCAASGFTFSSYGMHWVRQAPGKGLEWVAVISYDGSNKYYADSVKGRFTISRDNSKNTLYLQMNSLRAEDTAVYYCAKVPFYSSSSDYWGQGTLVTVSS
VL: QSVVTQPASVSGSPGQSITISCTGTSSDVGGSKYVSWFQQHPGKAPKLMIYDVSNRPSGVSYRFSGSKSGNTASLTISGLQAEDEADYYCTSYTSSRTWVFGGGTKLTVL
notes: tested as human IgG
Regarding B13, in assay [1], the EC50 came to 31 nM. That is a double-digit nanomolar value.

B14: 52D6 (antibody, V domains shown)
VH: EVQLLESGGGLVQPGRSLRLSCAASGFNFDAYAMHWVRQAPGKGLEWVSGISWNSGYIAYADSVEGRFAISRDNSKNTVFLQMNSLRAEDTAIYYCARDRWLSYWGQGTLVTVSS
VL: QSVLTQPASVSGSPGQSITISCTGTSSDVGGYNYVSWYQQHPGKAPKLMIYDVSKRPSGVSNRFSGSKSGNTASLTVSGLQAEDEAEYYCSSYAGSNFVVFGGGTKLTVL
notes: tested as human IgG
As to B14, in assay [1], the EC50 came out at 24 nM. The EC50 values of the last two molecules are within 1.5-fold of each other.

B15: 12C1 (antibody, V domains shown)
VH: EVQLLESGGGLVKPGGSLRLSCAASGFTFNNYAMHWVRQAPGKGLEWLTVISFYGGKQYYADSVKGRFTISRDNSRNTLYLQMNSLRADDTAVYYCARDNGRHFDYWGQGTLVTVSS
VL: QPVLTQPASVSGSPGQSITISCTGTSSDVGGYNYVSWYQQHPGKAPKLMIYDVSKRPSGVSNRFSGSKSGNTASLTISGLQAEDEADYYCTSYRSGRTYVFGSGTKVTVL
notes: tested as human IgG
B15 yielded an EC50 in assay [1] of 12 nM.

The term EC50 denotes the concentration that produces a half-maximal response. A low value points to higher potency in that assay.

The values are drawn from patent US20160053014A1 (SORRENTO THERAPEUTICS, published 2016).
